The values below come from publication doi:10.1101/2021.12.09.471704.

Read-outs that look alike come from different tables or passages of the source.

Data set [1] concerns the target T1, SiAgo (complex subunit);SiAga1 (complex subunit) (Sulfolobus islandicus M164;Sulfolobus …, UniProt C4KI01;C4KI00 1-459;1-243, |).
T1 sequence 1: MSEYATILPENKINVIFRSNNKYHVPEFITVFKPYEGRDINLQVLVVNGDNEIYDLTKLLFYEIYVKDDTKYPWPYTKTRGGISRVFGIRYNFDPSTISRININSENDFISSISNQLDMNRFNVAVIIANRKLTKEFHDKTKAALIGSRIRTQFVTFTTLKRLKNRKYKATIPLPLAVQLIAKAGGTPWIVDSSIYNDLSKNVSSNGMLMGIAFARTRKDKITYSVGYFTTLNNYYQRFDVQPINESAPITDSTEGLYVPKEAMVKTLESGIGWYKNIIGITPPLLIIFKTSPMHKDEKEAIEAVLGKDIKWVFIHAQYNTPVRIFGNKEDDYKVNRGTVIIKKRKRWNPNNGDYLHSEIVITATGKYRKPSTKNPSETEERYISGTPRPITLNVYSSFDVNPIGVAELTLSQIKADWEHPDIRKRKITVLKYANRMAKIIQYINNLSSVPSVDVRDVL
T1 sequence 2: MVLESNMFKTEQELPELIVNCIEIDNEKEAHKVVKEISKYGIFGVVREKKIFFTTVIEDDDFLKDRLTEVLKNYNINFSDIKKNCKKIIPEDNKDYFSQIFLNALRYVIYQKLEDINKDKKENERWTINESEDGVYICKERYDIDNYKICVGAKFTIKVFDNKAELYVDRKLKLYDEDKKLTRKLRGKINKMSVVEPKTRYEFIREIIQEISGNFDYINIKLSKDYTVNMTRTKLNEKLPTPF
The data set can be described thus: EMSA.

In data set [2] the target is T2, SiAgo M2;SiAga1 (complex subunit) (Sulfolobus islandicus M164;Sulfolobus …, UniProt C4KI01;C4KI00 1-459;1-243, K183A|).
T2 sequence 1: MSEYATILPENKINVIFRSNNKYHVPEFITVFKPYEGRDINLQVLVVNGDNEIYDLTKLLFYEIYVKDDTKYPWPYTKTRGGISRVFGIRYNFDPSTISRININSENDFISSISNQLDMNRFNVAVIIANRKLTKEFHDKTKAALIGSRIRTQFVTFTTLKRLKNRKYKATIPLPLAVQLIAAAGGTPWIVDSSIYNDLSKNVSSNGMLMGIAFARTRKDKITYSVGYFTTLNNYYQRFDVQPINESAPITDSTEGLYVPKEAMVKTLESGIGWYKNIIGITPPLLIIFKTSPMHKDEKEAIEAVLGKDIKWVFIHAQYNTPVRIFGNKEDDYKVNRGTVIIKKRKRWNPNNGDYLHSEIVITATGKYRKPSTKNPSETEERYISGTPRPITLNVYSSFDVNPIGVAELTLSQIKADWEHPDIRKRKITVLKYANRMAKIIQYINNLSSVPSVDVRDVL
T2 sequence 2: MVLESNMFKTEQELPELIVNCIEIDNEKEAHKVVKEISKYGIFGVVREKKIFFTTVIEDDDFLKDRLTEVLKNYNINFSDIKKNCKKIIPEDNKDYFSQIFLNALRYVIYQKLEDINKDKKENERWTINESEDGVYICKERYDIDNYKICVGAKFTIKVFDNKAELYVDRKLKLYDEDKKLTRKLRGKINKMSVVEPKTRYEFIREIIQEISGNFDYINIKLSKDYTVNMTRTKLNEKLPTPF
The data set can be described thus: EMSA. For orientation: In EMSA bound probe runs differently from free probe, usually more slowly.

Data set [3] has as its target T3, SiAgo M1;SiAga1 (complex subunit) (Sulfolobus islandicus M164;Sulfolobus …, UniProt C4KI01;C4KI00 1-459;1-243, K142A|).
T3 sequence 1: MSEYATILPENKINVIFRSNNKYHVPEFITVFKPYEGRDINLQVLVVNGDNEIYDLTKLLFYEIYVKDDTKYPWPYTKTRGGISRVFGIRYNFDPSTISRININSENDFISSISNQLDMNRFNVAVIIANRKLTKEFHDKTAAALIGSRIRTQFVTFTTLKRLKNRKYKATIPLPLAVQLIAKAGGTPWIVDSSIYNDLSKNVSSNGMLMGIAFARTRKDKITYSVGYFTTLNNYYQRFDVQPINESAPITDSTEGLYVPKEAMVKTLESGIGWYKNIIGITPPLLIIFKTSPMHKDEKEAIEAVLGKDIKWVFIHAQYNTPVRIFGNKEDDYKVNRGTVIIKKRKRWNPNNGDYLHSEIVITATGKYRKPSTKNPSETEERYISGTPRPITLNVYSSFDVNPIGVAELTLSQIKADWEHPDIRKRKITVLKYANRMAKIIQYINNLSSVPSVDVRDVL
T3 sequence 2: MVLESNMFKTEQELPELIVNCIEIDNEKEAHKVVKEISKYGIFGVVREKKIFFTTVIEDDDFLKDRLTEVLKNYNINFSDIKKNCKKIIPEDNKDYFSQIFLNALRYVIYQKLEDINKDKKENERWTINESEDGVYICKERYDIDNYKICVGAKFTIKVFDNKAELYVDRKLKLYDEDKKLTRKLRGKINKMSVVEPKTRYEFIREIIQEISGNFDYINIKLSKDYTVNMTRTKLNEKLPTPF
The data set can be described thus: EMSA.

In data set [4] the target is T2, SiAgo M2;SiAga1 (complex subunit). Nature of the data set: EMSA. The source holds these as a separate data set.
Data set [5] deals with T3, SiAgo M1;SiAga1 (complex subunit). Nature of the data set: EMSA. The source holds these as a separate data set.
In data set [6] the target is T1, SiAgo (complex subunit);SiAga1 (complex …). The data set can be described thus: EMSA. The source holds these as a separate data set.
Data set [7] deals with T4, SiAgo (Sulfolobus islandicus M164, UniProt C4KI01 1-459).
T4 sequence: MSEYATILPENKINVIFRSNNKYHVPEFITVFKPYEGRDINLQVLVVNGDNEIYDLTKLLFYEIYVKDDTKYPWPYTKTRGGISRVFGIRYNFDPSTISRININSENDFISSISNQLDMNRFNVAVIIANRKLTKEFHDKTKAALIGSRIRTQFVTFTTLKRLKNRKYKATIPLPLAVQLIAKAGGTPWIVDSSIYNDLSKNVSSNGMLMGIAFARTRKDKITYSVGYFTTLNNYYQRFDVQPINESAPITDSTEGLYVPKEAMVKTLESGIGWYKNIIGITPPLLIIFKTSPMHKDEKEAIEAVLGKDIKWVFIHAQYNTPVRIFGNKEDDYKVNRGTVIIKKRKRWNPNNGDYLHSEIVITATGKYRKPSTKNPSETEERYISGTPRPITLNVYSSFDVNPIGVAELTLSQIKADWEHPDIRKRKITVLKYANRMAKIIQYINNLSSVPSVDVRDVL
The data set can be described thus: EMSA.

Data set [8] addresses T1, SiAgo (complex subunit);SiAga1 (complex …). Nature of the data set: competition.

B1: guide 5P-RNA + TDNA (mixed)
RNA: UCAAAGCUUAGAUACCCUGGA
DNA: CCTCCAGGGTATCTAAGCTTTGAA
modifications: guide 5' phosphate
For B1, the binding result in data set [1], in data set [2] and in data set [3] was “binds” each time.
Regarding UCAAAGCUUAGAUACCCUGGA (ssRNA, 5' phosphate) [5P-RNA], the binding result in data set [4], in data set [5], in data set [6] and in data set [7] was “binds” throughout.

B2: guide 5P-RNA + TRNA competitor (mixed)
RNA 1: UCAAAGCUUAGAUACCCUGGA
RNA 2: CCUCCAGGGUAUCUAAGCUUUGAA
modifications: guide 5' phosphate
For the molecule B2, the binding result in data set [8] is listed as “binds”.

B3: guide 5P-RNA + TRNA (mixed)
RNA 1: UCAAAGCUUAGAUACCCUGGA
RNA 2: CCUCCAGGGUAUCUAAGCUUUGAA
modifications: guide 5' phosphate
Turning to B3, the binding result in data set [1] is on record as “binds”.

B4: guide 5P-RNA + TDNA competitor (mixed)
RNA: UCAAAGCUUAGAUACCCUGGA
DNA: CCTCCAGGGTATCTAAGCTTTGAA
modifications: guide 5' phosphate
Take B4: the binding result in data set [8] is “binds”.
